{
  "source": "paper PMC8563947",
  "about": "(Scientific Reports, 2021)",
  "binders": {"B1": {"name": "anti-GFP mutant nanobody Y37A without peptide barcode (VHH)", "VHH": "QVQLVESGGALVQPGGSLRLSCAASGFPVNRYSMRWARQAPGKEREWVAGMSSAGDRSSYEDSVKGRFTISRDDARNTVYLQMNSLKPEDTAVYYCNVNVGFEYWGQGTQVTVSS", "notes": "as the VHH chain of m2 with the stated change; source: P. pastoris, purified (Ni-NTA agarose)"}, "B2": {"name": "anti-GFP mutant nanobody F102A without peptide barcode (VHH)", "VHH": "B1 VHH with A37Y, F102A", "notes": "as the VHH chain of m2 with the stated change; source: Pichia pastoris GS115, culture medium, purified (His SpinTrap)"}, "B3": {"name": "anti-GFP mutant nanobody W47A without peptide barcode (VHH)", "VHH": "B1 VHH with A37Y, W47A", "notes": "as for B1"}, "B4": {"name": "anti-GFP mutant nanobody G50A without peptide barcode (VHH)", "VHH": "B1 VHH with A37Y, G50A", "notes": "as for B1"}, "B5": {"name": "anti-GFP mutant nanobody R35A without peptide barcode (VHH)", "VHH": "B1 VHH with R35A, A37Y", "notes": "as for B1"}, "B6": {"name": "anti-GFP mutant nanobody E103A without peptide barcode (VHH)", "VHH": "B1 VHH with A37Y, E103A", "notes": "as for B1"}, "B7": {"name": "anti-GFP mutant nanobody R57A without peptide barcode (VHH)", "VHH": "B1 VHH with A37Y, R57A", "notes": "as for B2"}},
  "key": {"[1]": {"target": "T1, green fluorescent protein (Aequorea victoria (assumed; GFP variant …, UniProt P42212 = GFP)", "T1 construct": "green fluorescent protein (GFP, 27 kDa); the GFP construct may be there; also called GFP; recombinant GFP; source: E. coli BL21 (DE3), purified (Ni-NTA agarose)", "assay": "SPR; Biacore T-200, multicycle; 265-274 RU of recombinant GFP immobilised on CM5 chip; Nbs flowed in five dilutions; HBS-EP+ buffer, 25 °C, 30 μL/min", "conditions": "both partners purified"}, "[2]": {"target": "T1, green fluorescent protein", "assay": "SPR; Biacore T-200, multicycle; 265-274 RU of recombinant GFP immobilised on CM5 chip; Nbs flowed in five dilutions; HBS-EP+ buffer, 25 °C, 30 μL/min", "conditions": "both partners purified", "remark": "listed apart in the source"}},
  "note": "Positions count from the first letter of the chain named. Numbers in names are those of the source.",
  "data": [
    {"binder": "B1", "values": [
      {"measurement": "Kd", "setting": "[1]", "result": 16.4, "unit": "nM"},
      {"measurement": "koff", "setting": "[1]", "result": 0.0759, "unit": "s⁻¹"},
      {"measurement": "kon", "setting": "[1]", "result": "4.62e+06", "unit": "M⁻¹ s⁻¹"}
    ]},
    {"binder": "B2", "values": [
      {"measurement": "Kd", "setting": "[2]", "result": 0.121, "unit": "nM"},
      {"measurement": "koff", "setting": "[2]", "result": 0.000628, "unit": "s⁻¹"},
      {"measurement": "kon", "setting": "[2]", "result": "5.2e+06", "unit": "M⁻¹ s⁻¹"}
    ]},
    {"binder": "B3", "values": [
      {"measurement": "Kd", "setting": "[1]", "result": 0.722, "unit": "nM"},
      {"measurement": "koff", "setting": "[1]", "result": 0.00606, "unit": "s⁻¹"},
      {"measurement": "kon", "setting": "[1]", "result": "8.39e+06", "unit": "M⁻¹ s⁻¹"}
    ]},
    {"binder": "B4", "values": [
      {"measurement": "binding result", "setting": "[1]", "result": "no binding"}
    ]},
    {"binder": "B5", "values": [
      {"measurement": "binding result", "setting": "[1]", "result": "no binding"}
    ]},
    {"binder": "B6", "values": [
      {"measurement": "binding result", "setting": "[1]", "result": "no binding"}
    ]},
    {"binder": "B7", "values": [
      {"measurement": "Kd", "setting": "[2]", "result": 0.02, "unit": "nM"},
      {"measurement": "koff", "setting": "[2]", "result": "6.72e-05", "unit": "s⁻¹"},
      {"measurement": "kon", "setting": "[2]", "result": "3.42e+06", "unit": "M⁻¹ s⁻¹"}
    ]}
  ]
}
